Assay results published in patent US12168773B2, “Engineered phosphoenolpyruvate carboxylase enzymes” (The Regents of the University of California, priority 2019, dated 2024).

What was measured:
[1] = test system: Zea mays PPC1 (ZmPPC1, C4 PEPC); assay: malate dehydrogenase coupled PEPC enzymatic assay, maize C4 PPC1 and engineered variants; assay type: biochemical
Source text: (§1) For both Arabidopsis C3 PPC1 (AtPPC1) and maize C4 PPC1 (ZmPPC1), the entire coding sequence for each was cloned into pET22b, which contains an amino-terminal 6×-HIS tag for protein purification, and expression was driven by the T7 promoter and lac operon. Relevant mutations were introduced by the Stratagene QuikChange mutagenesis kit using PCR amplification. Both wild type and mutant cDNA constructs were sequenced entirely following cloning into pet22b. Proteins were produced by growing transformed E. coli (BL21 CodonPlus) in autoinduction medium at 18° C. for 16 hours. Proteins were isolated by sonication of bacterial cells followed by passage over a nickel sepharose affinity column, elution with imidazole and separation on a GE SUPERDEX HILOAD 200 PG 16/60 all using an AKTA FPLC.
(§2) Enzyme analysis was conducted in vitro using protein that was generated by expression in E. coli using the pET22b vector. For expression, pET22b constructs were transformed into E. coli BL21-DE3 codon plus RIL cells and grown at 37° C. in autoinduction media until reaching an OD=1 after which these were transferred to 18° C. for 18 hours. Samples were collected and lysed by sonication. Protein was purified by passage through a His-trap nickel affinity column on an Akta FPLC and then eluted with 400 mM imidazole. Partially purified protein was then separated on an FPLC equipped with a HiPrep S200 size exclusion column (16/60) after which collected sample was concentrated by centrifugation to a final concentration of 4 mg/ml in 50% glycerol. Samples were stored at −20° C.
(§3) For enzymatic assays, a malate dehydrogenase coupled reaction was conducted with a range of substrate concentrations (0-7.5 mM phosphoenolpyruvate pyruvate) and a range of concentrations of allosteric inhibitor (0-50 mM malate). Assays were monitored using a Victor2 microplate reader at 25° C. Reactions consisted of […] PPC enzyme variants, 50 mM HEPES pH7.5, 10 mM MgCl2, 10 mM KHCO3 (carbonate substrate), 0.2 mM NADH, and 10 units/ml of malate dehydrogenase. Reaction time was 15 minutes and samples were measured on an ˜40 second interval. For measurement, which monitors loss of NADH, excitation wavelength was 340 nM and emission wavelength was 460 nM.

[2] = biological target: T1, Zea mays PPC1 (ZmPPC1, C4 PEPC) (Zea mays, UniProt P04711, A655V); assay: as above; assay type: biochemical; conditions: Kcat/Km
T1 construct: 6xHis (N); made in house; host or cells: E. coli BL21 CodonPlus (pET22b)
T1 sequence (P04711 whole entry A655V): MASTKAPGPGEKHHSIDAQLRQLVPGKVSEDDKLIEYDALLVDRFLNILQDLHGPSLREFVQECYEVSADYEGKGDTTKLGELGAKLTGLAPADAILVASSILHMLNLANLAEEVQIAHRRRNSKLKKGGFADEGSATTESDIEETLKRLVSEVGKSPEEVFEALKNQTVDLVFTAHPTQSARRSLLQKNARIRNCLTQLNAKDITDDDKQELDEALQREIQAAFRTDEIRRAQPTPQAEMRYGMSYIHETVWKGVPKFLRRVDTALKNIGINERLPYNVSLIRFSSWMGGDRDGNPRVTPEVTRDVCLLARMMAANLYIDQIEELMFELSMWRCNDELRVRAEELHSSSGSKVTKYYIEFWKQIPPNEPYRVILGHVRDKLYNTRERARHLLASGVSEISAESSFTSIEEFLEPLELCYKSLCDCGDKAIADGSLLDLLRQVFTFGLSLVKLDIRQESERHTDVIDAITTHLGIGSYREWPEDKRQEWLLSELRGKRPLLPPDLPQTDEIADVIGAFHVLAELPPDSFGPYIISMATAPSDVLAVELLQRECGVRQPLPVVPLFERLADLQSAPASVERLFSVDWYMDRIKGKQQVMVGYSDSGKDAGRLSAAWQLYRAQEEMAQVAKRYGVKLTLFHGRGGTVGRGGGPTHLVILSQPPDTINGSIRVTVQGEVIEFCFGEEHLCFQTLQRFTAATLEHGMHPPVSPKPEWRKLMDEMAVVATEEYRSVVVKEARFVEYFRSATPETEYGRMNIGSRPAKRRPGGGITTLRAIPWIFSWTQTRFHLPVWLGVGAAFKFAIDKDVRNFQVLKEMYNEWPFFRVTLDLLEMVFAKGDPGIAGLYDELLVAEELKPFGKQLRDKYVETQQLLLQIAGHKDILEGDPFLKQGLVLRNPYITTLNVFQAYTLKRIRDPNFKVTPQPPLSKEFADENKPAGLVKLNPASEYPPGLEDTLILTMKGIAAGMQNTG
Source text: as §1, §2, §3

B1: ZmPPC1 A651V: engineered Zea mays PPC1 with A651V substitution (A655V in SEQ ID NO:15) (protein)
chain: MASTKAPGPGEKHHSIDAQLRQLVPGKVSEDDKLIEYDALLVDRFLNILQDLHGPSLREFVQECYEVSADYEGKGDTTKLGELGAKLTGLAPADAILVASSILHMLNLANLAEEVQIAHRRRNSKLKKGGFADEGSATTESDIEETLKRLVSEVGKSPEEVFEALKNQTVDLVFTAHPTQSARRSLLQKNARIRNCLTQLNAKDITDDDKQELDEALQREIQAAFRTDEIRRAQPTPQDEMRYGMSYIHETVWKGVPKFLRRVDTALKNIGINERLPYNVSLIRFSSWMGGDRDGNPRVTPEVTRDVCLLARMMAANLYIDQIEELMFELSMWRCNDELRVRAEELHSSSGSKVTKYYIEFWKQIPPNEPYRVILGHVRDKLYNTRERARHLLASGVSEISAESSFTSIEEFLEPLELCYKSLCDCGDKAIADGSLLDLLRQVFTFGLSLVKLDIRQESERHTDVIDAITTHLGIGSYREWPEDKRQEWLLSELRGKRPLLPPDLPQTDEIADVIGAFHVLAELPPDSFGPYIISMATAPSDVLAVELLQRECGVRQPLPVVPLFERLADLQSAPASVERLFSVDWYMDRIKGKQQVMVGYSDSGKDAGRLSAAWQLYRAQEEMAQVAKRYGVKLTLFHGRGGTVGRGGGPTHLVILSQPPDTINGSIRVTVQGEVIEFCFGEEHLCFQTLQRFTAATLEHGMHPPVSPKPEWRKLMDEMAVVATEEYRSVVVKEARFVEYFRSATPETEYGRMNIGSRPAKRRPGGGITTLRAIPWIFSWTQTRFHLPVWLGVGAAFKFAIDKDVRNFQVLKEMYNEWPFFRVTLDLLEMVFAKGDPGIAGLYDELLVAEELKPFGKQLRDKYVETQQLLLQIAGHKDILEGDPFLKQGLVLRNPYITTLNVFQAYTLKRIRDPNFKVTPQPPLSKEFADENKPAGLVKLNPASEYPPGLEDTLILTMKGIAAGMQNTG
effects of the allosteric inhibitor malate relative to wt ZmPPC1 [1]: greatly reduce
Km ([1]; 0-7.5 mM phosphoenolpyruvate, 25° C, HEPES pH7.5, read-out: Km PEP): 477 ± 42 µM
Vmax ([1]; 25° C, HEPES pH7.5): 12.84 ± 0.89 units/mg
effect of malate on enzyme ([1]; at 50 mM malate): wholly unaffected
activity of C4 PEPC ([1]; substitution introduced into maize C4 PEPC (ZmPPC1)): increased activity
increase in catalytic efficiency relative to wt ZmPPC1 [2]: > 7 fold
